Consider 20 molecules from US20210388087A1.

First the molecules themselves.
B1: dBBDu183H H93K / dBBDu072L (antibody, name in Kabat numbering, V domains shown)
VH: QVQLVESGGGLVQPGRSLRLSCAASGFTFSNAWMHWVRQAPGKGLEWVAQIKDKGNAYAAYYAPSVKGRFTISRDDSKNSIYLQMNSLKTEDTAVYYCKYVHYASASTVLPAFGVDAWGQGTTVTVSS
VL: DIVMTQSPLSLPVTPGEPASISCQASQELVHMNRNTYLHWYQQKPGQAPRLLIYKVSNRFPGVPDRFSGSGSGTDFTLKISRVEAEDVGVYYCAQGTSVPFTFGQGTKLEIK
B2: dBBDu183H G100hK / dBBDu072L (antibody, name in Kabat numbering, V domains shown)
VH: QVQLVESGGGLVQPGRSLRLSCAASGFTFSNAWMHWVRQAPGKGLEWVAQIKDKGNAYAAYYAPSVKGRFTISRDDSKNSIYLQMNSLKTEDTAVYYCHYVHYASASTVLPAFKVDAWGQGTTVTVSS
VL: DIVMTQSPLSLPVTPGEPASISCQASQELVHMNRNTYLHWYQQKPGQAPRLLIYKVSNRFPGVPDRFSGSGSGTDFTLKISRVEAEDVGVYYCAQGTSVPFTFGQGTKLEIK
B3: dBBDu183H H96K / dBBDu072L (antibody, name in Kabat numbering, V domains shown)
VH: QVQLVESGGGLVQPGRSLRLSCAASGFTFSNAWMHWVRQAPGKGLEWVAQIKDKGNAYAAYYAPSVKGRFTISRDDSKNSIYLQMNSLKTEDTAVYYCHYVKYASASTVLPAFGVDAWGQGTTVTVSS
VL: DIVMTQSPLSLPVTPGEPASISCQASQELVHMNRNTYLHWYQQKPGQAPRLLIYKVSNRFPGVPDRFSGSGSGTDFTLKISRVEAEDVGVYYCAQGTSVPFTFGQGTKLEIK
B4: dBBDu183H H93R / dBBDu072L (antibody, name in Kabat numbering, V domains shown)
VH: QVQLVESGGGLVQPGRSLRLSCAASGFTFSNAWMHWVRQAPGKGLEWVAQIKDKGNAYAAYYAPSVKGRFTISRDDSKNSIYLQMNSLKTEDTAVYYCRYVHYASASTVLPAFGVDAWGQGTTVTVSS
VL: DIVMTQSPLSLPVTPGEPASISCQASQELVHMNRNTYLHWYQQKPGQAPRLLIYKVSNRFPGVPDRFSGSGSGTDFTLKISRVEAEDVGVYYCAQGTSVPFTFGQGTKLEIK
B5: dBBDu183H Y97R / dBBDu072L (antibody, name in Kabat numbering, V domains shown)
VH: QVQLVESGGGLVQPGRSLRLSCAASGFTFSNAWMHWVRQAPGKGLEWVAQIKDKGNAYAAYYAPSVKGRFTISRDDSKNSIYLQMNSLKTEDTAVYYCHYVHRASASTVLPAFGVDAWGQGTTVTVSS
VL: DIVMTQSPLSLPVTPGEPASISCQASQELVHMNRNTYLHWYQQKPGQAPRLLIYKVSNRFPGVPDRFSGSGSGTDFTLKISRVEAEDVGVYYCAQGTSVPFTFGQGTKLEIK
B6: dBBDu183H Y94R / dBBDu072L (antibody, name in Kabat numbering, V domains shown)
VH: QVQLVESGGGLVQPGRSLRLSCAASGFTFSNAWMHWVRQAPGKGLEWVAQIKDKGNAYAAYYAPSVKGRFTISRDDSKNSIYLQMNSLKTEDTAVYYCHRVHYASASTVLPAFGVDAWGQGTTVTVSS
VL: DIVMTQSPLSLPVTPGEPASISCQASQELVHMNRNTYLHWYQQKPGQAPRLLIYKVSNRFPGVPDRFSGSGSGTDFTLKISRVEAEDVGVYYCAQGTSVPFTFGQGTKLEIK
B7: dBBDu183H A98K / dBBDu072L (antibody, name in Kabat numbering, V domains shown)
VH: QVQLVESGGGLVQPGRSLRLSCAASGFTFSNAWMHWVRQAPGKGLEWVAQIKDKGNAYAAYYAPSVKGRFTISRDDSKNSIYLQMNSLKTEDTAVYYCHYVHYKSASTVLPAFGVDAWGQGTTVTVSS
VL: DIVMTQSPLSLPVTPGEPASISCQASQELVHMNRNTYLHWYQQKPGQAPRLLIYKVSNRFPGVPDRFSGSGSGTDFTLKISRVEAEDVGVYYCAQGTSVPFTFGQGTKLEIK
B8: dBBDu183H Y94K / dBBDu072L (antibody, name in Kabat numbering, V domains shown)
VH: QVQLVESGGGLVQPGRSLRLSCAASGFTFSNAWMHWVRQAPGKGLEWVAQIKDKGNAYAAYYAPSVKGRFTISRDDSKNSIYLQMNSLKTEDTAVYYCHKVHYASASTVLPAFGVDAWGQGTTVTVSS
VL: DIVMTQSPLSLPVTPGEPASISCQASQELVHMNRNTYLHWYQQKPGQAPRLLIYKVSNRFPGVPDRFSGSGSGTDFTLKISRVEAEDVGVYYCAQGTSVPFTFGQGTKLEIK
B9: dBBDu183H D101K / dBBDu072L (antibody, name in Kabat numbering, V domains shown)
VH: QVQLVESGGGLVQPGRSLRLSCAASGFTFSNAWMHWVRQAPGKGLEWVAQIKDKGNAYAAYYAPSVKGRFTISRDDSKNSIYLQMNSLKTEDTAVYYCHYVHYASASTVLPAFGVKAWGQGTTVTVSS
VL: DIVMTQSPLSLPVTPGEPASISCQASQELVHMNRNTYLHWYQQKPGQAPRLLIYKVSNRFPGVPDRFSGSGSGTDFTLKISRVEAEDVGVYYCAQGTSVPFTFGQGTKLEIK
B10: dBBDu183H Y97K / dBBDu072L (antibody, name in Kabat numbering, V domains shown)
VH: QVQLVESGGGLVQPGRSLRLSCAASGFTFSNAWMHWVRQAPGKGLEWVAQIKDKGNAYAAYYAPSVKGRFTISRDDSKNSIYLQMNSLKTEDTAVYYCHYVHKASASTVLPAFGVDAWGQGTTVTVSS
VL: DIVMTQSPLSLPVTPGEPASISCQASQELVHMNRNTYLHWYQQKPGQAPRLLIYKVSNRFPGVPDRFSGSGSGTDFTLKISRVEAEDVGVYYCAQGTSVPFTFGQGTKLEIK
B11: dBBDu183H A98R / dBBDu072L (antibody, name in Kabat numbering, V domains shown)
VH: QVQLVESGGGLVQPGRSLRLSCAASGFTFSNAWMHWVRQAPGKGLEWVAQIKDKGNAYAAYYAPSVKGRFTISRDDSKNSIYLQMNSLKTEDTAVYYCHYVHYRSASTVLPAFGVDAWGQGTTVTVSS
VL: DIVMTQSPLSLPVTPGEPASISCQASQELVHMNRNTYLHWYQQKPGQAPRLLIYKVSNRFPGVPDRFSGSGSGTDFTLKISRVEAEDVGVYYCAQGTSVPFTFGQGTKLEIK
B12: dBBDu183H V100iK / dBBDu072L (antibody, name in Kabat numbering, V domains shown)
VH: QVQLVESGGGLVQPGRSLRLSCAASGFTFSNAWMHWVRQAPGKGLEWVAQIKDKGNAYAAYYAPSVKGRFTISRDDSKNSIYLQMNSLKTEDTAVYYCHYVHYASASTVLPAFGKDAWGQGTTVTVSS
VL: DIVMTQSPLSLPVTPGEPASISCQASQELVHMNRNTYLHWYQQKPGQAPRLLIYKVSNRFPGVPDRFSGSGSGTDFTLKISRVEAEDVGVYYCAQGTSVPFTFGQGTKLEIK
B13: dBBDu183H T100bK / dBBDu072L (antibody, name in Kabat numbering, V domains shown)
VH: QVQLVESGGGLVQPGRSLRLSCAASGFTFSNAWMHWVRQAPGKGLEWVAQIKDKGNAYAAYYAPSVKGRFTISRDDSKNSIYLQMNSLKTEDTAVYYCHYVHYASASKVLPAFGVDAWGQGTTVTVSS
VL: DIVMTQSPLSLPVTPGEPASISCQASQELVHMNRNTYLHWYQQKPGQAPRLLIYKVSNRFPGVPDRFSGSGSGTDFTLKISRVEAEDVGVYYCAQGTSVPFTFGQGTKLEIK
B14: dBBDu183H A102K / dBBDu072L (antibody, name in Kabat numbering, V domains shown)
VH: QVQLVESGGGLVQPGRSLRLSCAASGFTFSNAWMHWVRQAPGKGLEWVAQIKDKGNAYAAYYAPSVKGRFTISRDDSKNSIYLQMNSLKTEDTAVYYCHYVHYASASTVLPAFGVDKWGQGTTVTVSS
VL: DIVMTQSPLSLPVTPGEPASISCQASQELVHMNRNTYLHWYQQKPGQAPRLLIYKVSNRFPGVPDRFSGSGSGTDFTLKISRVEAEDVGVYYCAQGTSVPFTFGQGTKLEIK
B15: dBBDu183H V95R / dBBDu072L (antibody, name in Kabat numbering, V domains shown)
VH: QVQLVESGGGLVQPGRSLRLSCAASGFTFSNAWMHWVRQAPGKGLEWVAQIKDKGNAYAAYYAPSVKGRFTISRDDSKNSIYLQMNSLKTEDTAVYYCHYRHYASASTVLPAFGVDAWGQGTTVTVSS
VL: DIVMTQSPLSLPVTPGEPASISCQASQELVHMNRNTYLHWYQQKPGQAPRLLIYKVSNRFPGVPDRFSGSGSGTDFTLKISRVEAEDVGVYYCAQGTSVPFTFGQGTKLEIK
B16: dBBDu183H F100gK / dBBDu072L (antibody, name in Kabat numbering, V domains shown)
VH: QVQLVESGGGLVQPGRSLRLSCAASGFTFSNAWMHWVRQAPGKGLEWVAQIKDKGNAYAAYYAPSVKGRFTISRDDSKNSIYLQMNSLKTEDTAVYYCHYVHYASASTVLPAKGVDAWGQGTTVTVSS
VL: DIVMTQSPLSLPVTPGEPASISCQASQELVHMNRNTYLHWYQQKPGQAPRLLIYKVSNRFPGVPDRFSGSGSGTDFTLKISRVEAEDVGVYYCAQGTSVPFTFGQGTKLEIK
B17: dBBDu183H V95K / dBBDu072L (antibody, name in Kabat numbering, V domains shown)
VH: QVQLVESGGGLVQPGRSLRLSCAASGFTFSNAWMHWVRQAPGKGLEWVAQIKDKGNAYAAYYAPSVKGRFTISRDDSKNSIYLQMNSLKTEDTAVYYCHYKHYASASTVLPAFGVDAWGQGTTVTVSS
VL: DIVMTQSPLSLPVTPGEPASISCQASQELVHMNRNTYLHWYQQKPGQAPRLLIYKVSNRFPGVPDRFSGSGSGTDFTLKISRVEAEDVGVYYCAQGTSVPFTFGQGTKLEIK
B18: dBBDu183H S100aK / dBBDu072L (antibody, name in Kabat numbering, V domains shown)
VH: QVQLVESGGGLVQPGRSLRLSCAASGFTFSNAWMHWVRQAPGKGLEWVAQIKDKGNAYAAYYAPSVKGRFTISRDDSKNSIYLQMNSLKTEDTAVYYCHYVHYASAKTVLPAFGVDAWGQGTTVTVSS
VL: DIVMTQSPLSLPVTPGEPASISCQASQELVHMNRNTYLHWYQQKPGQAPRLLIYKVSNRFPGVPDRFSGSGSGTDFTLKISRVEAEDVGVYYCAQGTSVPFTFGQGTKLEIK
B19: dBBDu183H H96R / dBBDu072L (antibody, name in Kabat numbering, V domains shown)
VH: QVQLVESGGGLVQPGRSLRLSCAASGFTFSNAWMHWVRQAPGKGLEWVAQIKDKGNAYAAYYAPSVKGRFTISRDDSKNSIYLQMNSLKTEDTAVYYCHYVRYASASTVLPAFGVDAWGQGTTVTVSS
VL: DIVMTQSPLSLPVTPGEPASISCQASQELVHMNRNTYLHWYQQKPGQAPRLLIYKVSNRFPGVPDRFSGSGSGTDFTLKISRVEAEDVGVYYCAQGTSVPFTFGQGTKLEIK
B20: dBBDu183H A100fK / dBBDu072L (antibody, name in Kabat numbering, V domains shown)
VH: QVQLVESGGGLVQPGRSLRLSCAASGFTFSNAWMHWVRQAPGKGLEWVAQIKDKGNAYAAYYAPSVKGRFTISRDDSKNSIYLQMNSLKTEDTAVYYCHYVHYASASTVLPKFGVDAWGQGTTVTVSS
VL: DIVMTQSPLSLPVTPGEPASISCQASQELVHMNRNTYLHWYQQKPGQAPRLLIYKVSNRFPGVPDRFSGSGSGTDFTLKISRVEAEDVGVYYCAQGTSVPFTFGQGTKLEIK

The target in this assay is Human CD137 ECD (human). As to the kind of experiment: SPR, vs parent H183/L072. A general note: In SPR one partner is held on a chip, and binding of the other changes the refractive index at the surface.
Sequence of Human CD137 ECD (human) (chain, as listed by the source limits assumed): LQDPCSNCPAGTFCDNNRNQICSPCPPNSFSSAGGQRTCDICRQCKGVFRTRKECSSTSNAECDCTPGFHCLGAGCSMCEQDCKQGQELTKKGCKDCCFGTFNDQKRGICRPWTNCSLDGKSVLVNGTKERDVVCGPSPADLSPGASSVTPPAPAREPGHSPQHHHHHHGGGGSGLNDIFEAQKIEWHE
Turning to B1, the fold change of affinity stood at 0 fold.

Regarding B2, the fold change of affinity worked out at 0 fold. For B3 the value was 0 fold. As to B4, the fold change of affinity turned out to be 0 fold. For B5 the value was 0 fold. For B6 the value was 0 fold.

With B7, the fold change of affinity was 0 fold. As to B8, the fold change of affinity worked out at 0 fold. With B9, the fold change of affinity was 0 fold.

Take B10: the fold change of affinity was found to be 0 fold.

With B11, the fold change of affinity was determined as 0 fold.

For B12, the fold change of affinity amounted to 0 fold.

Turning to B13, the fold change of affinity worked out at 0 fold. For B14 the value was 0 fold; for B15, 0 fold. For B16 the value was 0 fold; for B17, 0 fold; for B18, 0 fold.

Consider B19, for which the fold change of affinity is 0 fold. For the molecule B20, the fold change of affinity is 0 fold.
